Literature values as cited in publication PMC9558124.

Target: PEX19 (Homo sapiens) (UniProt P40855)
Sequence of UniProt P40855 (P40855 2-296): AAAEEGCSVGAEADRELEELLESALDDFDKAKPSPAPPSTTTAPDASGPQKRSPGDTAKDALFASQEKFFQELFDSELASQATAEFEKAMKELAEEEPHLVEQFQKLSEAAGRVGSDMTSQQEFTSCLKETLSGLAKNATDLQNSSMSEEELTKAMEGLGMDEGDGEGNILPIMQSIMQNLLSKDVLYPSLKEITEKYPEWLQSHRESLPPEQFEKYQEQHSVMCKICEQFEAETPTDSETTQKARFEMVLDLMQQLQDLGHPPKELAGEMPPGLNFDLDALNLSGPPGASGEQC

Kd: 10 nM
Substance: PEX3 CTD (from UniProt P56589)
